Measured values: patent US20160272691A1, “COMPOSITIONS AND METHODS FOR TREATING CONDITIONS ASSOCIATED WITH y-HERPESVIRUSES” (NDSU RESEARCH FOUNDATION, priority 2013, published 2016)

Columns and labels:
[1] = molecular target: Bcl-XL expressed in MCF7 cells (UniProt Q07817); experiment: cell-based or functional assay
[2] = molecular target: T1, M11 expressed in MCF7 cells (murine γHV68) (UniProt P89884); experiment: cell-based or functional assay
T1 sequence: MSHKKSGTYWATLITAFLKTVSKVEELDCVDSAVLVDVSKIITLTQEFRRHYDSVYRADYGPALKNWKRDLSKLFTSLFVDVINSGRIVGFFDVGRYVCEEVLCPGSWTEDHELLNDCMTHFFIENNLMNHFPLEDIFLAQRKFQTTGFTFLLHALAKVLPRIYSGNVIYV

Chain of Bcl-XL expressed in MCF7 cells (Q07817 whole entry): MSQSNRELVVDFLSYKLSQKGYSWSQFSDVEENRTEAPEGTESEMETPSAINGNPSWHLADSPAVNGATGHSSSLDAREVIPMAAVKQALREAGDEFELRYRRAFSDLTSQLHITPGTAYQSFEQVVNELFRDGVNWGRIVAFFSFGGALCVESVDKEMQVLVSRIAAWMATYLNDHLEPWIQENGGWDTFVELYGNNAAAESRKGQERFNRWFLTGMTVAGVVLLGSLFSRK

Substance | Bcl-XL-mediated down-regulation of autophagy (GFP-LC3 puncta per cell, MCF7) [1] | M11-mediated down-regulation of autophagy (GFP-LC3 puncta per cell, MCF7) [2]
Beclin 1 K117A mutant, expressed in MCF7 cells (from UniProt Q14457 1-450) | 0.504 p (t-test) | 0.157 p (t-test)
Beclin 1 G120E mutant, expressed in MCF7 cells (from UniProt Q14457 1-450) | 0.0119 p (t-test) | 0.0313 p (t-test)
Beclin 1 F123A mutant, expressed in MCF7 cells (from UniProt Q14457 1-450) | 0.00246 p (t-test) | 0.0107 p (t-test)
Beclin 1 G120E+D121A double mutant, expressed in MCF7 cells (from UniProt Q14457 1-450) | 0.00079 p (t-test) | 0.228 p (t-test)
Beclin 1 L112A mutant, expressed in MCF7 cells (from UniProt Q14457 1-450) | 0.0621 p (t-test) | 0.00065 p (t-test)
Beclin 1 L116A mutant, expressed in MCF7 cells (from UniProt Q14457 1-450) | 0.00212 p (t-test) | 0.00432 p (t-test)
